2 molecules from patent US20220306695A1, “COMPSTATIN ANALOGUES AND THEIR MEDICAL USES” (priority 2019, published 2022) can be followed below.

Assay [1] concerns the target T1, Human C3 (human, UniProt P01024 23-1663).
T1 construct: In SPR the bought human C3 was immobilised on CM5 chips by amine coupling; In the haemolysis assay the C3 is that of diluted human serum; also called complement C3
As to the kind of experiment: SPR, C3 immobilised. On the procedure: Surface plasmon resonance (SPR) was used to characterize peptides with respect to their binding affinity (Kd) for C3. Human C3 (Complement tech cat #A1 13c) was immobilised on individual flow cells of CM5 sensor chips (GE Healthcare) using standard amine coupling to a density of approximately 3000 resonance units (RU) in a buffer consisting of 10 mM phosphate pH 7.4, 150 mM NaCl, 0.05% Tween20.
For interaction experiments a multi-cycle experiment approach was used and performed using either a Biacore™ T200 or Biacore™ X100 instrument (GE Healthcare) at 25° C. Peptides were injected in increasing concentration series (5-8 different concentrations) for 60-120 s at a flow rate of 30 μL/min in a buffer consisting of 10 mM Tris buffer at pH 7.4, with 150 mM NaCl and 0.05% Tween20. This was followed by a dissociation period for up to 10 min. The C3 surface was regenerated between runs by a 45 s injection of 3 M MgCl₂.
Sensorgrams were double-referenced (reference surface, blanks) prior to analysis of the kinetic profiles by globally fitting data to a 1:1 Langmuir binding model to obtain association and dissociation rates for calculation of the equilibrium dissociation constant Kd. Each peptide was tested at in at least 2 independent experiments.
(In general: SPR reads the build-up and loss of mass on a sensor chip optically.)

Assay [2] deals with T1, Human C3. Kind of assay: cell-based or functional assay.
The target of assay [3] is T1, Human C3. As to the kind of experiment: cell-based or functional assay. This is another data set of the same source.

Positions of bridges follow the written chain, without caps; N, C: chain ends.

T1 sequence (P01024 23-1663 limits assumed): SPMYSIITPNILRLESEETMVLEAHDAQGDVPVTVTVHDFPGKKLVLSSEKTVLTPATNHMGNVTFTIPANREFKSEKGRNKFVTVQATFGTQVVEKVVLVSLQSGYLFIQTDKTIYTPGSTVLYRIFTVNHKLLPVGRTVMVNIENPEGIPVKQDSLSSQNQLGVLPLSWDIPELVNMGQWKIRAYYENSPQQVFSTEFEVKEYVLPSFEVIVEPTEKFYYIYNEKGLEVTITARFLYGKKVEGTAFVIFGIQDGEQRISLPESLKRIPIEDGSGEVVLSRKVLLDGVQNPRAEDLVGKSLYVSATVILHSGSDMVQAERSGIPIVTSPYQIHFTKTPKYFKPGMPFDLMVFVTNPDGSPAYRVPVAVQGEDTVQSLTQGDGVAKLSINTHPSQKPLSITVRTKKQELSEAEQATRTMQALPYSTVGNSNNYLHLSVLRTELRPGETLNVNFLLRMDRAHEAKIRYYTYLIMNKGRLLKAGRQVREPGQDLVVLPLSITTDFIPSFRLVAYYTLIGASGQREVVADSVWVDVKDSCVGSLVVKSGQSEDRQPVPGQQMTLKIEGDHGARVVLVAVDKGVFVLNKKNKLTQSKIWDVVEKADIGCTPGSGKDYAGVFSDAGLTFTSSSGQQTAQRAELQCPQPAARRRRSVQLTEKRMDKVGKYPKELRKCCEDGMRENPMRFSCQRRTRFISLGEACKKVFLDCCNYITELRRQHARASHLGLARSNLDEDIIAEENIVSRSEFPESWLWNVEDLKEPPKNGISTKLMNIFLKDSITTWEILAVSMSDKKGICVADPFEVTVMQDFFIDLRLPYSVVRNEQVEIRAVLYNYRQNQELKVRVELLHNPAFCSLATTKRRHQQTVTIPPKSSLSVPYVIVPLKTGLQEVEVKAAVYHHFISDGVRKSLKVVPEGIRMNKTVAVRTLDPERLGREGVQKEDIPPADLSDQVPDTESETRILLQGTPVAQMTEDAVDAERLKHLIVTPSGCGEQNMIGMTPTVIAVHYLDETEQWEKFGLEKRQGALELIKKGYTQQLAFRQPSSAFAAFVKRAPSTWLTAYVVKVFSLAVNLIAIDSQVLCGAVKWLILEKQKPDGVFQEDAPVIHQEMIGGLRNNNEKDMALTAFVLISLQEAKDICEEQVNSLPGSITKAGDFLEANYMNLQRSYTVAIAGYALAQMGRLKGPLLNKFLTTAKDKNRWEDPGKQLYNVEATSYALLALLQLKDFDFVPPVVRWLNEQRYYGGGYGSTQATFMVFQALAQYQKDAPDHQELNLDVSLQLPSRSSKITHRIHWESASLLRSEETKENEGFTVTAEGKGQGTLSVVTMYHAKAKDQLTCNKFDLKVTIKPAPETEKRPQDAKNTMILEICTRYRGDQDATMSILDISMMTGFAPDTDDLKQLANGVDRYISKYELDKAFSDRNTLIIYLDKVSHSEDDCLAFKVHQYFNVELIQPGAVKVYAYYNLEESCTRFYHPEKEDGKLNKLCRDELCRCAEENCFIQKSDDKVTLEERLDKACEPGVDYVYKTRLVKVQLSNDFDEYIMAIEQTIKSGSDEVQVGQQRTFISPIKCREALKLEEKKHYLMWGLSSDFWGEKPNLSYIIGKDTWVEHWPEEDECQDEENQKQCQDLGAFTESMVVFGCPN

B1: Compound D (peptide)
peptide: Ac-ICVWQDWGEHRCTGAES-NH2
modifications: disulfide 2-12
SMILES: CC[C@H](C)[C@H](NC(C)=O)C(=O)N[C@H]1CSSC[C@@H](C(=O)N[C@H](C(=O)NCC(=O)N[C@@H](C)C(=O)N[C@@H](CCC(=O)O)C(=O)N[C@@H](CO)C(N)=O)[C@@H](C)O)NC(=O)[C@H](CCCNC(=N)N)NC(=O)[C@H](Cc2c[nH]cn2)NC(=O)[C@H](CCC(=O)O)NC(=O)CNC(=O)[C@H](Cc2c[nH]c3ccccc23)NC(=O)[C@H](CC(=O)O)NC(=O)[C@H](CCC(N)=O)NC(=O)[C@H](Cc2c[nH]c3ccccc23)NC(=O)[C@H](C(C)C)NC1=O
The term Kd denotes the constant that tells how readily two partners part at equilibrium. Molecule B1 gave a Kd in assay [1] of 230 nM. The “CP hemolysis IC50” value in assay [2] is 210 nM.

B2: Compound A (peptide)
peptide: Ac-ICVWQDWGEHRCT-NH2
modifications: disulfide 2-12
SMILES: CC[C@H](C)[C@H](NC(C)=O)C(=O)N[C@H]1CSSC[C@@H](C(=O)N[C@H](C(N)=O)[C@@H](C)O)NC(=O)[C@H](CCCNC(=N)N)NC(=O)[C@H](Cc2c[nH]cn2)NC(=O)[C@H](CCC(=O)O)NC(=O)CNC(=O)[C@H](Cc2c[nH]c3ccccc23)NC(=O)[C@H](CC(=O)O)NC(=O)[C@H](CCC(N)=O)NC(=O)[C@H](Cc2c[nH]c3ccccc23)NC(=O)[C@H](C(C)C)NC1=O
In turn, B2 showed a Kd in assay [1] of 130 nM. Besides, the “CP hemolysis IC50” value in assay [2] is 350 nM. Moreover, the “IC50, CP hemolysis” value in assay [3] is 350 nM.
